In patent publication US20210139548A1 (published 2021):
*1 amine or outer side, *2 acyl side, *3 side chain or, on linkers, in order; H or OH if unused. Side-chain parts run from the residue outwards. The star is where a group is joined. C18 diacid = O=C(O)CCCCCCCCCCCCCCCCC(=O)*; γGlu = O=C(O)[C@H](CCC(=O)[*:2])N[*:1]; Isovaleryl = CC(C)CC(=O)*; AEEA = NCCOCCOCC(=O)O

T1: human neuropeptide Y2 receptor (human, UniProt P49146 1-381)
T1 construct: whole, on cells; also called hNPY2 receptor; hNPY2-R
T1 sequence (looked up): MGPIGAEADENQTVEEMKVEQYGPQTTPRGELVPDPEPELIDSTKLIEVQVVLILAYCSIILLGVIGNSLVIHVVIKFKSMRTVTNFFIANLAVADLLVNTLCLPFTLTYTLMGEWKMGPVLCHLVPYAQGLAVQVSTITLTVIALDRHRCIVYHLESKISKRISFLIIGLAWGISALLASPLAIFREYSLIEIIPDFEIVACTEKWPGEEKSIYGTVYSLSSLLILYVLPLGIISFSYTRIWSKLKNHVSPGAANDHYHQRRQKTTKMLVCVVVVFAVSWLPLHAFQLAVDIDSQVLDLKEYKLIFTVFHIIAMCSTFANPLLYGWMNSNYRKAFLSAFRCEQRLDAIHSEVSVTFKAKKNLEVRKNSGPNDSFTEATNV


Molecular target: T1, human neuropeptide Y2 receptor
Assay: radioligand competition (125I-PYY(1-36)), hNPY2R membranes
Summary of the method: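 Commercial human Y2 receptor membranes (0.5 μg protein/well) were incubated with peptide for 2 h at room temperature in 50 mM HEPES, 5 mM MgCl₂, 1 mM CaCl₂, pH 7.4, with 0.2% ovalbumin. Bound radioligand was separated on PEI-soaked GF/C filters and counted by scintillation, and IC₅₀ came from nonlinear sigmoidal regression.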

Ki | Binder
2.55 nM | Isovaleryl-APEK([AEEA-AEEA-γGlu-C18 diacid])PEEDSSPEELQRYYVELRHYYNWLTRQRY-NH2 (SMILES CC(C)CC(=O)N[C@@H](C)C(=O)N1CCC[C@H]1C(=O)N[C@@H](CCC(=O)O)C(=O)N[C@@H](CCCCNC(=O)COCCOCCNC(=O)COCCOCCNC(=O)CC[C@H](NC(=O)CCCCCCCCCCCCCCCCC(=O)O)C(=O)O)C(=O)N1CCC[C@H]1C(=O)N[C@@H](CCC(=O)O)C(=O)N[C@@H](CCC(=O)O)C(=O)N[C@@H](CC(=O)O)C(=O)N[C@@H](CO)C(=O)N[C@@H](CO)C(=O)N1CCC[C@H]1C(=O)N[C@@H](CCC(=O)O)C(=O)N[C@@H](CCC(=O)O)C(=O)N[C@@H](CC(C)C)C(=O)N[C@@H](CCC(N)=O)C(=O)N[C@@H](CCCNC(=N)N)C(=O)N[C@@H](Cc1ccc(O)cc1)C(=O)N[C@@H](Cc1ccc(O)cc1)C(=O)N[C@H](C(=O)N[C@@H](CCC(=O)O)C(=O)N[C@@H](CC(C)C)C(=O)N[C@@H](CCCNC(=N)N)C(=O)N[C@@H](Cc1c[nH]cn1)C(=O)N[C@@H](Cc1ccc(O)cc1)C(=O)N[C@@H](Cc1ccc(O)cc1)C(=O)N[C@@H](CC(N)=O)C(=O)N[C@@H](Cc1c[nH]c2ccccc12)C(=O)N[C@@H](CC(C)C)C(=O)N[C@H](C(=O)N[C@@H](CCCNC(=N)N)C(=O)N[C@@H](CCC(N)=O)C(=O)N[C@@H](CCCNC(=N)N)C(=O)N[C@@H](Cc1ccc(O)cc1)C(N)=O)[C@@H](C)O)C(C)C) [Compound 177]
3.85 nM | Isovaleryl-APEK([AEEA-AEEA-γGlu-C18 diacid])PEEDASPEETQQYYVSLRHYYNWLTRQRY-NH2 (SMILES CC(C)CC(=O)N[C@@H](C)C(=O)N1CCC[C@H]1C(=O)N[C@@H](CCC(=O)O)C(=O)N[C@@H](CCCCNC(=O)COCCOCCNC(=O)COCCOCCNC(=O)CC[C@H](NC(=O)CCCCCCCCCCCCCCCCC(=O)O)C(=O)O)C(=O)N1CCC[C@H]1C(=O)N[C@@H](CCC(=O)O)C(=O)N[C@@H](CCC(=O)O)C(=O)N[C@@H](CC(=O)O)C(=O)N[C@@H](C)C(=O)N[C@@H](CO)C(=O)N1CCC[C@H]1C(=O)N[C@@H](CCC(=O)O)C(=O)N[C@@H](CCC(=O)O)C(=O)N[C@H](C(=O)N[C@@H](CCC(N)=O)C(=O)N[C@@H](CCC(N)=O)C(=O)N[C@@H](Cc1ccc(O)cc1)C(=O)N[C@@H](Cc1ccc(O)cc1)C(=O)N[C@H](C(=O)N[C@@H](CO)C(=O)N[C@@H](CC(C)C)C(=O)N[C@@H](CCCNC(=N)N)C(=O)N[C@@H](Cc1c[nH]cn1)C(=O)N[C@@H](Cc1ccc(O)cc1)C(=O)N[C@@H](Cc1ccc(O)cc1)C(=O)N[C@@H](CC(N)=O)C(=O)N[C@@H](Cc1c[nH]c2ccccc12)C(=O)N[C@@H](CC(C)C)C(=O)N[C@H](C(=O)N[C@@H](CCCNC(=N)N)C(=O)N[C@@H](CCC(N)=O)C(=O)N[C@@H](CCCNC(=N)N)C(=O)N[C@@H](Cc1ccc(O)cc1)C(N)=O)[C@@H](C)O)C(C)C)[C@@H](C)O) [Compound 180]
0.67 nM | Isovaleryl-APEK([AEEA-AEEA-γGlu-C18 diacid])PEADASPEELQRYYVALRHYYNWLTRQRY-NH2 (SMILES CC(C)CC(=O)N[C@@H](C)C(=O)N1CCC[C@H]1C(=O)N[C@@H](CCC(=O)O)C(=O)N[C@@H](CCCCNC(=O)COCCOCCNC(=O)COCCOCCNC(=O)CC[C@H](NC(=O)CCCCCCCCCCCCCCCCC(=O)O)C(=O)O)C(=O)N1CCC[C@H]1C(=O)N[C@@H](CCC(=O)O)C(=O)N[C@@H](C)C(=O)N[C@@H](CC(=O)O)C(=O)N[C@@H](C)C(=O)N[C@@H](CO)C(=O)N1CCC[C@H]1C(=O)N[C@@H](CCC(=O)O)C(=O)N[C@@H](CCC(=O)O)C(=O)N[C@@H](CC(C)C)C(=O)N[C@@H](CCC(N)=O)C(=O)N[C@@H](CCCNC(=N)N)C(=O)N[C@@H](Cc1ccc(O)cc1)C(=O)N[C@@H](Cc1ccc(O)cc1)C(=O)N[C@H](C(=O)N[C@@H](C)C(=O)N[C@@H](CC(C)C)C(=O)N[C@@H](CCCNC(=N)N)C(=O)N[C@@H](Cc1c[nH]cn1)C(=O)N[C@@H](Cc1ccc(O)cc1)C(=O)N[C@@H](Cc1ccc(O)cc1)C(=O)N[C@@H](CC(N)=O)C(=O)N[C@@H](Cc1c[nH]c2ccccc12)C(=O)N[C@@H](CC(C)C)C(=O)N[C@H](C(=O)N[C@@H](CCCNC(=N)N)C(=O)N[C@@H](CCC(N)=O)C(=O)N[C@@H](CCCNC(=N)N)C(=O)N[C@@H](Cc1ccc(O)cc1)C(N)=O)[C@@H](C)O)C(C)C) [Compound 181]
1 nM | Isovaleryl-APAK([AEEA-AEEA-γGlu-C18 diacid])PEEDASPAELQRYYVSLRHYYNWLTRQRY-NH2 (SMILES CC(C)CC(=O)N[C@@H](C)C(=O)N1CCC[C@H]1C(=O)N[C@@H](C)C(=O)N[C@@H](CCCCNC(=O)COCCOCCNC(=O)COCCOCCNC(=O)CC[C@H](NC(=O)CCCCCCCCCCCCCCCCC(=O)O)C(=O)O)C(=O)N1CCC[C@H]1C(=O)N[C@@H](CCC(=O)O)C(=O)N[C@@H](CCC(=O)O)C(=O)N[C@@H](CC(=O)O)C(=O)N[C@@H](C)C(=O)N[C@@H](CO)C(=O)N1CCC[C@H]1C(=O)N[C@@H](C)C(=O)N[C@@H](CCC(=O)O)C(=O)N[C@@H](CC(C)C)C(=O)N[C@@H](CCC(N)=O)C(=O)N[C@@H](CCCNC(=N)N)C(=O)N[C@@H](Cc1ccc(O)cc1)C(=O)N[C@@H](Cc1ccc(O)cc1)C(=O)N[C@H](C(=O)N[C@@H](CO)C(=O)N[C@@H](CC(C)C)C(=O)N[C@@H](CCCNC(=N)N)C(=O)N[C@@H](Cc1c[nH]cn1)C(=O)N[C@@H](Cc1ccc(O)cc1)C(=O)N[C@@H](Cc1ccc(O)cc1)C(=O)N[C@@H](CC(N)=O)C(=O)N[C@@H](Cc1c[nH]c2ccccc12)C(=O)N[C@@H](CC(C)C)C(=O)N[C@H](C(=O)N[C@@H](CCCNC(=N)N)C(=O)N[C@@H](CCC(N)=O)C(=O)N[C@@H](CCCNC(=N)N)C(=O)N[C@@H](Cc1ccc(O)cc1)C(N)=O)[C@@H](C)O)C(C)C) [Compound 179]
3.45 nM | Isovaleryl-APEK([AEEA-AEEA-γGlu-C18 diacid])PEEDGSPEELQRYYVELRHYYNWLTRQRY-NH2 (SMILES CC(C)CC(=O)N[C@@H](C)C(=O)N1CCC[C@H]1C(=O)N[C@@H](CCC(=O)O)C(=O)N[C@@H](CCCCNC(=O)COCCOCCNC(=O)COCCOCCNC(=O)CC[C@H](NC(=O)CCCCCCCCCCCCCCCCC(=O)O)C(=O)O)C(=O)N1CCC[C@H]1C(=O)N[C@@H](CCC(=O)O)C(=O)N[C@@H](CCC(=O)O)C(=O)N[C@@H](CC(=O)O)C(=O)NCC(=O)N[C@@H](CO)C(=O)N1CCC[C@H]1C(=O)N[C@@H](CCC(=O)O)C(=O)N[C@@H](CCC(=O)O)C(=O)N[C@@H](CC(C)C)C(=O)N[C@@H](CCC(N)=O)C(=O)N[C@@H](CCCNC(=N)N)C(=O)N[C@@H](Cc1ccc(O)cc1)C(=O)N[C@@H](Cc1ccc(O)cc1)C(=O)N[C@H](C(=O)N[C@@H](CCC(=O)O)C(=O)N[C@@H](CC(C)C)C(=O)N[C@@H](CCCNC(=N)N)C(=O)N[C@@H](Cc1c[nH]cn1)C(=O)N[C@@H](Cc1ccc(O)cc1)C(=O)N[C@@H](Cc1ccc(O)cc1)C(=O)N[C@@H](CC(N)=O)C(=O)N[C@@H](Cc1c[nH]c2ccccc12)C(=O)N[C@@H](CC(C)C)C(=O)N[C@H](C(=O)N[C@@H](CCCNC(=N)N)C(=O)N[C@@H](CCC(N)=O)C(=O)N[C@@H](CCCNC(=N)N)C(=O)N[C@@H](Cc1ccc(O)cc1)C(N)=O)[C@@H](C)O)C(C)C) [Compound 182]
2.05 nM | Isovaleryl-APEK([AEEA-AEEA-γGlu-C18 diacid])PEEDATPEETERYYVSLRHYYNWLTRQRY-NH2 (SMILES CC(C)CC(=O)N[C@@H](C)C(=O)N1CCC[C@H]1C(=O)N[C@@H](CCC(=O)O)C(=O)N[C@@H](CCCCNC(=O)COCCOCCNC(=O)COCCOCCNC(=O)CC[C@H](NC(=O)CCCCCCCCCCCCCCCCC(=O)O)C(=O)O)C(=O)N1CCC[C@H]1C(=O)N[C@@H](CCC(=O)O)C(=O)N[C@@H](CCC(=O)O)C(=O)N[C@@H](CC(=O)O)C(=O)N[C@@H](C)C(=O)N[C@H](C(=O)N1CCC[C@H]1C(=O)N[C@@H](CCC(=O)O)C(=O)N[C@@H](CCC(=O)O)C(=O)N[C@H](C(=O)N[C@@H](CCC(=O)O)C(=O)N[C@@H](CCCNC(=N)N)C(=O)N[C@@H](Cc1ccc(O)cc1)C(=O)N[C@@H](Cc1ccc(O)cc1)C(=O)N[C@H](C(=O)N[C@@H](CO)C(=O)N[C@@H](CC(C)C)C(=O)N[C@@H](CCCNC(=N)N)C(=O)N[C@@H](Cc1c[nH]cn1)C(=O)N[C@@H](Cc1ccc(O)cc1)C(=O)N[C@@H](Cc1ccc(O)cc1)C(=O)N[C@@H](CC(N)=O)C(=O)N[C@@H](Cc1c[nH]c2ccccc12)C(=O)N[C@@H](CC(C)C)C(=O)N[C@H](C(=O)N[C@@H](CCCNC(=N)N)C(=O)N[C@@H](CCC(N)=O)C(=O)N[C@@H](CCCNC(=N)N)C(=O)N[C@@H](Cc1ccc(O)cc1)C(N)=O)[C@@H](C)O)C(C)C)[C@@H](C)O)[C@@H](C)O) [Compound 178]
